Data from patent US20230167164A1 (IMMUNOWAKE, published 2023).
Numbering of substitutions follows the chain as printed. Names may count otherwise. Read-outs that look alike come from different tables or passages of the source. Blank lines part the entries; values can stand above or below the binder they belong to.

How the values were obtained:
mouse PD-1 [1] = biological target: T1, mouse PD-1 (mouse, UniProt Q02242 25-167, limits assumed); assay: Kd column of Table 22; same value as PD-L1(mut2)-Fc in Table 20
T1 construct: also called mPD-1
T1 sequence (looked up): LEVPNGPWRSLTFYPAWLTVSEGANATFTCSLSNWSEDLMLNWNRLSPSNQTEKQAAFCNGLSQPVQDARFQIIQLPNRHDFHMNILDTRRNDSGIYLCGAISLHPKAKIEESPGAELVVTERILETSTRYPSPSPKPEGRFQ

[2] = biological target: T2, human IL-12 receptor complex (human, UniProt P42701 24-662; Q99665 24-862); assay: cell-based or functional assay
[3] = biological target: T3, human PD-1 overexpressed on HEK-Blue reporter cells (human, UniProt Q15116 25-288); assay: cell-based or functional assay
human PD-1 [4] = biological target: T4, human PD-1 (human, UniProt Q15116 25-167, limits assumed); assay: method not named
T4 construct: nivolumab is called an anti-human PD-1 antibody; also called hPD-1

mouse PD-1 [5] = biological target: T1, mouse PD-1; assay: method not named
[6] = biological target: T2, human IL-12 receptor complex; assay: cell-based or functional assay; remark: listed apart in the source
[7] = biological target: T3, human PD-1 overexpressed on HEK-Blue …; assay: cell-based or functional assay; remark: listed apart in the source
human PD-1 [8] = biological target: T4, human PD-1; assay: Kd column of Table 18; same value as the antibody in Table 17
human PD-1 [9] = biological target: T4, human PD-1; assay: Kd to PD-1 as printed for the construct in Table 19; method not told there; same value as for the parental anti-PD-1 antibody
human PD-1 [10] = biological target: T4, human PD-1; assay: affinity measured in PD-L2-Fc format; method not named
mouse PD-1 [11] = biological target: T1, mouse PD-1; assay: as above

T2 sequence (Q99665 24-862, chain 2 of 2, other chains not shown): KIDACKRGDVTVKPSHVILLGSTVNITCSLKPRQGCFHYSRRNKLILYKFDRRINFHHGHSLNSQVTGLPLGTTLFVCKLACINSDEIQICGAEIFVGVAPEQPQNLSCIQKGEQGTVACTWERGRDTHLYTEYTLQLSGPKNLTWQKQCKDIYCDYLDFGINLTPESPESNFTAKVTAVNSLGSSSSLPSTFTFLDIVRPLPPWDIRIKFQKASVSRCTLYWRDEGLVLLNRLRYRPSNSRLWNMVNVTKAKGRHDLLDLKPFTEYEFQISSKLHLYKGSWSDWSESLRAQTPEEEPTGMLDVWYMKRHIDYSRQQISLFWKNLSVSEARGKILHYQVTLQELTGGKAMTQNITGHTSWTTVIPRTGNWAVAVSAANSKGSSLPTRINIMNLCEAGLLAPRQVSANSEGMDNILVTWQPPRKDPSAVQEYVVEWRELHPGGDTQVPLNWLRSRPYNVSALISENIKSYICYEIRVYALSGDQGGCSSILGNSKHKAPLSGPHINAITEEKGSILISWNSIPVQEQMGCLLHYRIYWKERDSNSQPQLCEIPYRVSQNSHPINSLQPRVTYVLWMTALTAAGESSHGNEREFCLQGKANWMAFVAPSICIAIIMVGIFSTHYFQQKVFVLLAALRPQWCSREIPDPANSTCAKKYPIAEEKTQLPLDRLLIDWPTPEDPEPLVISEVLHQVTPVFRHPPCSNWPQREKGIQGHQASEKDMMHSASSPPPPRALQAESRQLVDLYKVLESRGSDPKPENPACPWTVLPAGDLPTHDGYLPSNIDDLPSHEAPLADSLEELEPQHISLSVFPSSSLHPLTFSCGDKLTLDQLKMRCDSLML
T4 sequence (Q15116 25-167 limits assumed): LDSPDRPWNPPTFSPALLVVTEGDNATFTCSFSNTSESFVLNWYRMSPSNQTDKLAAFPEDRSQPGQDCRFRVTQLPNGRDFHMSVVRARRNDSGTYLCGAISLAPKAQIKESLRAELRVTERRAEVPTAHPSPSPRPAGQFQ
T3 sequence (Q15116 25-288): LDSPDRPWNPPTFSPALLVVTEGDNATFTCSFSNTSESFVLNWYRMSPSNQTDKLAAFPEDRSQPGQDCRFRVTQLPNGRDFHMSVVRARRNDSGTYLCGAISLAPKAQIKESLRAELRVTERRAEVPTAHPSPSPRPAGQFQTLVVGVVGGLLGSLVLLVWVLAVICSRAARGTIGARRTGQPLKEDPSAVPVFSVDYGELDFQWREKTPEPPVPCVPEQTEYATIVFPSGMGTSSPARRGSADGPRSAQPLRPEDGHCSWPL

B2: IL-12(E59A/F60A)/anti-PD-1(D100N) (other)
heavy 1: QVQLVESGGGVVQPGRSLRLDCKASGITFSNSGMHWVRQAPGKGLEWVAVIWYDGSKRYYADSVKGRFTISRDNSKNTLFLQMNSLRAEDTAVYYCATNNDYWGQGTLVTVSSASTKGPSVFPLAPSSKSTSGGTAALGCLVKDYFPEPVTVSWNSGALTSGVHTFPAVLQSSGLYSLSSVVTVPSSSLGTQTYICNVNHKPSNTKVDKKVEPKSCDKPGSGIWELKKDVYVVELDWYPDAPGEMVVLTCDTPEEDGITWTLDQSSEVLGSGKTLTIQVKAAGDAGQYTCHKGGEVLSHSLLLLHKKEDGIWSTDILKDQKEPKNKTFLRCEAKNYSGRFTCWWLTTISTDLTFSVKSSRGSSDPQGVTCGAATLSAERVRGDNKEYEYSVECQEDSACPAAEESLPIEVMVDAVHKLKYENYTSSFFIRDIIKPDPPKNLQLKPLKNSRQVEVSWEYPDTWSTPHSYFSLTFCVQVQGKSKREKKDRVFTDKTSATVICRKNASISVRAQDRYYSSSWSEWASVPCSGGGGSGGGGSGGGGSGGGGSGRNLPVATPDPGMFPCLHHSQNLLRAVSNMLQKARQTLEFYPCTSEEIDHEDITKDKTSTVEACLPLELTKNESCLNSRETSFITNGSCLASRKTSFMMALCLSSIYEDLKMYQVEFKTMNAKLLMDPKRQIFLDQNMLAVIDELMQALNFNSETVPQKSSLEEPDFYKTKIKLCILLHAFRIRAVTIDRVMSYLNASDKTHTCPPCPAPEDEGGPSVFLFPPKPKDTLMISRTPEVTCVVVDVSHEDPEVKFNWYVDGVEVHNAKTKPREEQYNSTYRVVSVLTVLHQDWLNGKEYKCKVSNKALPAPIEKTISKAKGQPREPQVYVYPPSREEMTKNQVSLTCLVKGFYPSDIAVEWESNGQPENNYKTTPPVLDEDGSFALVSKLTVDKSRWQQGNVFSCSVMHEALHNHYTQKSLSLSPGK
heavy 2: QVQLVESGGGVVQPGRSLRLDCKASGITFSNSGMHWVRQAPGKGLEWVAVIWYDGSKRYYADSVKGRFTISRDNSKNTLFLQMNSLRAEDTAVYYCATNNDYWGQGTLVTVSSASTKGPSVFPLAPSSKSTSGGTAALGCLVKDYFPEPVTVSWNSGALTSGVHTFPAVLQSSGLYSLSSVVTVPSSSLGTQTYICNVNHKPSNTKVDKKVEPKSCDKTHTCPPCPAPEKKGGPSVFLFPPKPKDTLMISRTPEVTCVVVDVSHEDPEVKFNWYVDGVEVHNAKTKPREEQYNSTYRVVSVLTVLHQDWLNGKEYKCKVSNKALPAPIEKTISKAKGQPREPQVYVLPPSREEMTKNQVSLLCLVKGFYPSDIAVEWESNGQPENRYMTWPPVLDSDGSFFLYSKLTVDKSRWQQGNVFSCSVMHEALHNHYTQKSLSLSPGK
light: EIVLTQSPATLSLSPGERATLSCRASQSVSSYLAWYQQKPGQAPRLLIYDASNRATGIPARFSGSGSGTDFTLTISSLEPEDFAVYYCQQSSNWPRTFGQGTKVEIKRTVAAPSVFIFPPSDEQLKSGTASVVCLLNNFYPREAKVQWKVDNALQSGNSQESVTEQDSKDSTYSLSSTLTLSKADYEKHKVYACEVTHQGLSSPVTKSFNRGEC
IL-12 signal transduction, % of rIL-12, HEK-IL-12 cells [6]: < 0.2%
IL-12 signal transduction, % of rIL-12, HEK-IL-12-PD-1 (high) [7]: 38%
IL-12 signal transduction, % of rIL-12, HEK-IL-12-PD-1 (low) [7]: 33%
Kd (human PD-1 [8]): 25 nM
Kd (human PD-1 [9]): 25 nM

B4: PD-L2(wt)-Fc (Fc fusion)
chain 1: LFTVTVPKELYIIEHGSNVTLECNFDTGSHVNLGAITASLQKVENDTSPHRERATLLEEQLPLGKASFHIPQVQVRDEGQYQCIIIYGVAWDYKYLTLKVKASYRKINTHILKVPETDEVELTCQATGYPLAEVSWPNVSVPANTSHSRTPEGLYQVTSVLRLKPPPGRNFSCVFWNTHVRELTLASIDLQSQMEPRTHPTDKTHTCPPCPAPEDEGGPSVFLFPPKPKDTLMISRTPEVTCVVVDVSHEDPEVKFNWYVDGVEVHNAKTKPREEQYNSTYRVVSVLTVLHQDWLNGKEYKCKVSNKALPAPIEKTISKAKGQPREPQVYVYPPSREEMTKNQVSLTCLVKGFYPSDIAVEWESNGQPENNYKTTPPVLDEDGSFALVSKLTVDKSRWQQGNVFSCSVMHEALHNHYTQKSLSLSPGK
chain 2: B4 chain 1 with D215K, E216K, Y332L, T347L, N371R, K373M, T375W, E381S, A386F, V388Y
notes: also called None
Kd (human PD-1 [10]): 1200 nM
Kd (mouse PD-1 [11]): 980 nM

More lines, now with the values ahead:

Kd (mouse PD-1 [1]): 120 nM
IL-12 signal transduction, % of rIL-12, HEK-IL-12 cells [2]: < 0.2%
IL-12 signal transduction, % of rIL-12, HEK-IL-12-PD-1 cells [3]: 24%
Kd (human PD-1 [4]): ~100 nM
Kd (mouse PD-1 [5]): ~100 nM
B1: IL-12(E59A/F60A)/PD-L1(mut2)-Fc (Fc fusion)
chain 1: FTVTVPKDLYVVEYGSNMTIECKFPVEKQLDLAALQVYWMMEDKNIIQFVHGEEDLKVQHSSYRQRARLLKDQLSLGNAALQITDVKLQDAGVYTCLIAYKGADYKRITVKVNAPYNKINQRILVVDPVTSEHELTCQAEGYPKAEVIWTSSDHQVLSGKTTTTNSKREEKLFNVTSTLRINTTTNEIFYCTFRRLDPEENHTAELVIPELPLAHPPNERGGGGSGGGIWELKKDVYVVELDWYPDAPGEMVVLTCDTPEEDGITWTLDQSSEVLGSGKTLTIQVKAAGDAGQYTCHKGGEVLSHSLLLLHKKEDGIWSTDILKDQKEPKNKTFLRCEAKNYSGRFTCWWLTTISTDLTFSVKSSRGSSDPQGVTCGAATLSAERVRGDNKEYEYSVECQEDSACPAAEESLPIEVMVDAVHKLKYENYTSSFFIRDIIKPDPPKNLQLKPLKNSRQVEVSWEYPDTWSTPHSYFSLTFCVQVQGKSKREKKDRVFTDKTSATVICRKNASISVRAQDRYYSSSWSEWASVPCSGGGGSGGGSGGGGSRNLPVATPDPGMFPCLHHSQNLLRAVSNMLQKARQTLEFYPCTSEEIDHEDITKDKTSTVEACLPLELTKNESCLNSRETSFITNGSCLASRKTSFMMALCLSSIYEDLKMYQVEFKTMNAKLLMDPKRQIFLDQNMLAVIDELMQALNFNSETVPQKSSLEEPDFYKTKIKLCILLHAFRIRAVTIDRVMSYLNASGGGGSGGGDKTHTCPPCPAPEDEGGPSVFLFPPKPKDTLMISRTPEVTCVVVDVSHEDPEVKFNWYVDGVEVHNAKTKPREEQYNSTYRVVSVLTVLHQDWLNGKEYKCKVSNKALPAPIEKTISKAKGQPREPQVYVYPPSREEMTKNQVSLTCLVKGFYPSDIAVEWESNGQPENNYKTTPPVLDEDGSFALVSKLTVDKSRWQQGNVFSCSVMHEALHNHYTQKSLSLSPGK
chain 2: FTVTVPKDLYVVEYGSNMTIECKFPVEKQLDLAALQVYWMMEDKNIIQFVHGEEDLKVQHSSYRQRARLLKDQLSLGNAALQITDVKLQDAGVYTCLIAYKGADYKRITVKVNAPYNKINQRILVVDPVTSEHELTCQAEGYPKAEVIWTSSDHQVLSGKTTTTNSKREEKLFNVTSTLRINTTTNEIFYCTFRRLDPEENHTAELVIPELPLAHPPNERGGGGSGGGDKTHTCPPCPAPEKKGGPSVFLFPPKPKDTLMISRTPEVTCVVVDVSHEDPEVKFNWYVDGVEVHNAKTKPREEQYNSTYRVVSVLTVLHQDWLNGKEYKCKVSNKALPAPIEKTISKAKGQPREPQVYVLPPSREEMTKNQVSLLCLVKGFYPSDIAVEWESNGQPENRYMTWPPVLDSDGSFFLYSKLTVDKSRWQQGNVFSCSVMHEALHNHYTQKSLSLSPGK
notes: also called IL-12(E59A/F60A)/PD-L1(I54Q/E58M/R113T/M115L/S117A/G119K)-Fc

IL-12 signal transduction, % of rIL-12, HEK-IL-12 cells [6]: < 0.2%
IL-12 signal transduction, % of rIL-12, HEK-IL-12-PD-1 (high) [7]: 10%
IL-12 signal transduction, % of rIL-12, HEK-IL-12-PD-1 (low) [7]: 3%
Kd (human PD-1 [8]): 910 nM
Kd (human PD-1 [9]): 910 nM
B3: IL-12(E59A/F60A)/anti-PD-1(D100R) (other)
heavy 1: B2 heavy 1 with N100R
heavy 2: B2 heavy 2 with N100R
light: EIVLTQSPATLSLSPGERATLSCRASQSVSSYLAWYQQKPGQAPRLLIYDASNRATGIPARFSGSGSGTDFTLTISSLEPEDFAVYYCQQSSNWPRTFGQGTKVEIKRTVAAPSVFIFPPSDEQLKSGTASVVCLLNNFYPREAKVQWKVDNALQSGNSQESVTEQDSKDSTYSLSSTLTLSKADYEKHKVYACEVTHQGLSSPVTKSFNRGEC
